Source: US5847088A, “Antibodies specific for platelet-activating factor acetylhydrolase” (ICOS Corporation, priority 1995, dated 1998)

Tests used:
[1] = Pharmacokinetics of PAF-AH in rat circulation (double mAb capture ELISA); assay type: in vivo; details: 2000 U IV, mean ± SEM
Protocol: Four rats received 2000 U of PAF-AH by IV injection in a 300 μl volume. Plasma was collected at various time points and stored at 4° C. and plasma concentrations of PAF-AH were determined by ELISA using a double mAb capture assay. In brief, monoclonal antibody 90G11D (Example 13) was diluted in 50 mM carbonate buffer pH 9.6 at 100 ng/ml and immobilized on Immulon 4 ELISA plates overnight at 4° C. After extensive washing with PBS containing 0.05% Tween 20, the plates were blocked for 1 hour at room temperature with 0.5% fish skin gelatin (Sigma) diluted in PBS. Serum samples diluted in PBS with 15 mM CHAPS were added in duplicate to the washed ELISA plate and incubated for 1 hour at room temperature. After washing, a biotin conjugate of monoclonal antibody 90F2D (Example 13) was added to the wells at a concentration of 5 μg/ml diluted in PBS and incubated for 1 hour at room temperature. After washing, 50 μl of a 1:1000 dilution of ExtraAvidin (Sigma) was added to the wells and incubated for 1 hour at room temperature. After washing, wells were developed using OPD as a substrate and quantitated. Enzyme activity was then calculated from a standard curve. […]

[2] = test system: antigen-induced eosinophil recruitment; assay: Antigen-induced eosinophil recruitment to trachea of OVA-sensitized mice; assay type: in vivo, mouse; details: 750 units IV 30 minutes before and 24 hours after aerosolized OVA; 48 hours
Protocol: The accumulation of eosinophils in the airway is a characteristic feature of late phase immune responses which occur in asthma, rhinitis and eczema. BALB/c mice (Charles River) were sensitized by two intraperitoneal injections consisting of 1 μg of ovalbumin (OVA) in 4 mg of aluminum hydroxide (Imject alum, Pierce Laboratories, Rockford, Ill.) given at a 2 week interval. Fourteen days following the second immunization, the sensitized mice were challenged with either aerosolized OVA or saline as a control.
Prior to challenge mice were randomly placed into four groups, with four mice/group. Mice in groups 1 and 3 were pretreated with 140 μl of control buffer consisting of 25 mM tris, 0.5M NaCl, 1 mM EDTA and 0.1% Tween 80 given by intravenous injection. Mice in groups 2 and 4 were pretreated with 750 units of PAF-AH (activity of 5,500 units/ml given in 140 μl of PAF-AH buffer). Thirty minutes following administration of PAF-AH or buffer, mice in groups 1 and 2 were exposed to aerosolized PBS as described below, while mice in groups 3 and 4 were exposed to aerosolized OVA. Twenty-four hours later mice were treated a second time with either 140 μl of buffer (groups 1 and 3) or 750 units of PAF-AH in 140 μl of buffer (groups 2 and 4) given by intravenous injection.
Eosinophil infiltration of the trachea was induced in the sensitized mice by exposing the animals to aerosolized OVA. […]

B1: PAF-AH: Recombinant human plasma platelet-activating factor acetylhydrolase (beginning at Ile42 of SEQ ID NO:8) expressed in E. coli (protein, UniProt Q13093 22-441, looked up)
Platelet-activating factor …: FDWQYINPVAHMKSSAWVNKIQVLMAAASFGQTKIPRGNGPYSVGCTDLMFDHTNKGTFLRLYYPSQDNDRLDTLWIPNKEYFWGLSKFLGTHWLMGNILRLLFGSMTTPANWNSPLRPGEKYPLVVFSHGLGAFRTLYSAIGIDLASHGFIVAAVEHRDRSASATYYFKDQSAAEIGDKSWLYLRTLKQEEETHIRNEQVRQRAKECSQALSLILDIDHGKPVKNALDLKFDMEQLKDSIDREKIAVIGHSFGGATVIQTLSEDQRFRCGIALDAWMFPLGDEVYSRIPQPLFFINSEYFQYPANIIKMKKCYSPDKERKMITIRGSVHQNFADFTFATGKIIGHMLKLKGDIDSNVAIDLSNKASLAFLQKHLGLHKDFDQWDCLIEGDDENLIPGTNINTTNQHIMLQNSSGIEKYN
What does the source list for B1?
plasma enzyme level at one hour [1]: 374 U/ml; eosinophils in submucosal tissue of trachea [2]: very few eosinophils in the submucosal tissue
